What was measured:
S100A7 = target: T1, S100A7 (human, UniProt P31151 2-101); assay: co-IP with anti-FLAG, N-FLAG B3GNT2, mass spectrometry
T1 construct: also called NP_002954.2
T1 sequence (looked up): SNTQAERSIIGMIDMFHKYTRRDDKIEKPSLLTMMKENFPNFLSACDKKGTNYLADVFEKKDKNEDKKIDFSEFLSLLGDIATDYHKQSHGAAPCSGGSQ
Method: (§1) Cells were plated in 10-cm cell culture dishes and grown to 60-80% confluency. For each condition, two biological replicates were harvested for co-IP. Cells were washed with PBS and 4 mL of lysis buffer (20 mM HEPES, 1% Triton X-100, 150 mM NaCl, 1 mM EDTA, and 10% glycerol) containing protease inhibitor cocktail was added. Cells were scraped and lysate was incubated at 4° C. under rotary agitation for 1 h. Lysate was centrifuged at 14,000×g for 10 min at 4° C. Supernatant was transferred to a new tube and an aliquot was taken as the input. […] For Western blots, 10 μg/mL Chicken Anti-FLAG (Aves labs ET-DY100) and IgY control (R&D Systems AB-101-C) antibodies were biotinylated (Thermo Fisher Scientific 90407) and added to the respective conditions. Lysates with antibodies were incubated at 4° C. under rotary agitation overnight. For each mL of lysate, 50 μL of Pierce Protein A/G Magnetic Beads (Mass spectrometry; Thermo Fisher Scientific 88803) or Pierce Streptavidin Magnetic Beads (Western blot; Thermo Fisher Scientific 88817) was washed twice with lysis buffer. Lysates with antibodies were added to the beads and incubated at 4° C. under rotary agitation for 4 h. Beads were washed with lysis buffer 3 times and resuspended in lysis buffer for storage.
(§2) Magnetic beads were resuspended in 100 mM Tris pH 7.8, reduced, alkylated and digested with trypsin at 37° ° C. overnight. This solution was subjected to solid phase extraction to concentrate the peptides and remove unwanted reagents followed by injection onto a Shimadzu HPLC with fraction collector. Eight fractions were collected and after concentration were injected on a Waters NanoAcquity HPLC equipped with a self-packed Aeris 3 μm C18 analytical column 0.075 mm by 20 cm, (Phenomenex). Peptides were eluted using standard reverse-phase gradients. The effluent from the column was analyzed using a Thermo Orbitrap Elite mass spectrometer (nanospray configuration) operated in a data dependent manner for 54 minutes. The resulting fragmentation spectra were correlated against the known database using Proteome Discover 1.4 (Thermo Fisher Scientific).

EIF3A = target: T2, EIF3A (human, UniProt Q14152 2-1382); assay: as above
T2 construct: also called NP_003741.1
T2 sequence (Q14152 2-1382 limits assumed): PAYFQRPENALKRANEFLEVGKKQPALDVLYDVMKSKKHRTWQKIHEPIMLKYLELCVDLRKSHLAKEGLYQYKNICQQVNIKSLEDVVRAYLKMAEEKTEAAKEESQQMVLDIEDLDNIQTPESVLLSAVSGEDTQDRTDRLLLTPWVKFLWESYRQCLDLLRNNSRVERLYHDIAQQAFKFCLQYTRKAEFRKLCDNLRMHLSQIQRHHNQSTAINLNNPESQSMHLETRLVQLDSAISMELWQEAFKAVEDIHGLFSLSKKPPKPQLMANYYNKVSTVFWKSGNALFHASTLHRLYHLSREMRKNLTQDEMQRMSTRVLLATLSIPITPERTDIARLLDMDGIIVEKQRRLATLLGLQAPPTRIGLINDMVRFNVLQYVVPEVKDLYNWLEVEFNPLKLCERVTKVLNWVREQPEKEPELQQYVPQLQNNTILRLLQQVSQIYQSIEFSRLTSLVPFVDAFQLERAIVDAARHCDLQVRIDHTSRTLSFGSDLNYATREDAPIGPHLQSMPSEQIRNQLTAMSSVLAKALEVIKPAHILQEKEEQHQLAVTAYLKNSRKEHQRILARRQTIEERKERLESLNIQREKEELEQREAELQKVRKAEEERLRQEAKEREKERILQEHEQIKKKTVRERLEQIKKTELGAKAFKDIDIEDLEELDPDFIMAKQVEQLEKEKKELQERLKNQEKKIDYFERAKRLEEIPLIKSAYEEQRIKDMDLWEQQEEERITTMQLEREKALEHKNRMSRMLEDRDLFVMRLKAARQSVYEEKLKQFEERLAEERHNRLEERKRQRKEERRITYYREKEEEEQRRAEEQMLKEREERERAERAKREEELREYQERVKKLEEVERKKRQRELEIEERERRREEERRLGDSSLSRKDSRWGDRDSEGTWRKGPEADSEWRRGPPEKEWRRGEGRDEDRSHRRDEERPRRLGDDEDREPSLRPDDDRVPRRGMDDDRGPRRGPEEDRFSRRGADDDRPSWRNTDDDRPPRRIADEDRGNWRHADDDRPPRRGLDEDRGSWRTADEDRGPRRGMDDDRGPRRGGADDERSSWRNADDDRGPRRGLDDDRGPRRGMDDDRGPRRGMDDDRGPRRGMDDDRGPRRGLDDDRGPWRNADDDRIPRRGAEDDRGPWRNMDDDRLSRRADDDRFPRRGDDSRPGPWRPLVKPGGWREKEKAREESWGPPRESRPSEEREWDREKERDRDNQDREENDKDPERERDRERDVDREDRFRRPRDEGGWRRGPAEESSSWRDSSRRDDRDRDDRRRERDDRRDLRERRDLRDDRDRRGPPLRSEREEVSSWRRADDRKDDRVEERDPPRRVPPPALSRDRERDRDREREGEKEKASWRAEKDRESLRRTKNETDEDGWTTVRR
Method: as §1, §2

SRP14 = target: T3, SRP14 (human, UniProt P37108 2-136); assay: co-IP with mouse anti-FLAG from lysate of cells overexpressing N-FLAG B3GNT2, then mass spectrometry
T3 construct: Identified by mass spectrometry in the co-IP; also called NP_003125.3
T3 sequence (looked up): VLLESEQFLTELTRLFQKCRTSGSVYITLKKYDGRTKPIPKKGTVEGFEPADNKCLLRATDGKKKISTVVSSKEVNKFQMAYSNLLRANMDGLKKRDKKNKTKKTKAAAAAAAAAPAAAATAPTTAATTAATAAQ
Method: as §1, §2

TCP1 = target: T4, TCP1 (human, UniProt P17987 1-556); assay: as above
T4 construct: Identified by mass spectrometry in the co-IP; also called NP_110379.2
T4 sequence (P17987 whole entry): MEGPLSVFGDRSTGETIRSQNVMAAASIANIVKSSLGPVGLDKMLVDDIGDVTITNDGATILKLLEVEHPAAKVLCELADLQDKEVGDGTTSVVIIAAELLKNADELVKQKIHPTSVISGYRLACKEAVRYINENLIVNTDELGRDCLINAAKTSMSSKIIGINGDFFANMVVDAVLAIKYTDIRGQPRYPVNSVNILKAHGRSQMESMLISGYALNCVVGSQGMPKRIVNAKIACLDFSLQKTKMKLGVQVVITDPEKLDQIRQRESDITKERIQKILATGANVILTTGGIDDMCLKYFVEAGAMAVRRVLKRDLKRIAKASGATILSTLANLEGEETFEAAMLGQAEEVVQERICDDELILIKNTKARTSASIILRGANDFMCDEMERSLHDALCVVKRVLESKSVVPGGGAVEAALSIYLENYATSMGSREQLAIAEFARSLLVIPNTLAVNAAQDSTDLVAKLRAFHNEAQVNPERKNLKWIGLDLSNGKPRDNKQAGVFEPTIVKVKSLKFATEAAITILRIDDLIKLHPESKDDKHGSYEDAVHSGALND
Method: as §1, §2

KHDRBS1 = target: T5, KHDRBS1 (human, UniProt Q07666 1-443); assay: as above
T5 construct: Identified by mass spectrometry in the co-IP; also called NP_006550.1
T5 sequence (Q07666 whole entry): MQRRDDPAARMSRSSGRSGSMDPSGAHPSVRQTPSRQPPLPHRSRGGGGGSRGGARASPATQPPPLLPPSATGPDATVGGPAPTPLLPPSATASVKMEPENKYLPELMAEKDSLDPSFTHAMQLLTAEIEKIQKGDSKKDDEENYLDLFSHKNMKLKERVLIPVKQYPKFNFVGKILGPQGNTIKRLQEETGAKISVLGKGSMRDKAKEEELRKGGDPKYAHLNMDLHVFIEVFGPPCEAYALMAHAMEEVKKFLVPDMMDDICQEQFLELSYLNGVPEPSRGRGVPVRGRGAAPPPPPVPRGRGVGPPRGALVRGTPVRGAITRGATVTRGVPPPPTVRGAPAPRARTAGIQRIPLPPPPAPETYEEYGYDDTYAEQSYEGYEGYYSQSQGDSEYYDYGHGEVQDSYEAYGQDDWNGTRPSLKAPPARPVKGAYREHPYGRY
Method: as §1, §2

SUPT16H = target: T6, SUPT16H (human, UniProt Q9Y5B9 2-1047); assay: as above
T6 construct: Identified by mass spectrometry in the co-IP; also called NP_009123.1 (+1)
T6 sequence (Q9Y5B9 2-1047 limits assumed): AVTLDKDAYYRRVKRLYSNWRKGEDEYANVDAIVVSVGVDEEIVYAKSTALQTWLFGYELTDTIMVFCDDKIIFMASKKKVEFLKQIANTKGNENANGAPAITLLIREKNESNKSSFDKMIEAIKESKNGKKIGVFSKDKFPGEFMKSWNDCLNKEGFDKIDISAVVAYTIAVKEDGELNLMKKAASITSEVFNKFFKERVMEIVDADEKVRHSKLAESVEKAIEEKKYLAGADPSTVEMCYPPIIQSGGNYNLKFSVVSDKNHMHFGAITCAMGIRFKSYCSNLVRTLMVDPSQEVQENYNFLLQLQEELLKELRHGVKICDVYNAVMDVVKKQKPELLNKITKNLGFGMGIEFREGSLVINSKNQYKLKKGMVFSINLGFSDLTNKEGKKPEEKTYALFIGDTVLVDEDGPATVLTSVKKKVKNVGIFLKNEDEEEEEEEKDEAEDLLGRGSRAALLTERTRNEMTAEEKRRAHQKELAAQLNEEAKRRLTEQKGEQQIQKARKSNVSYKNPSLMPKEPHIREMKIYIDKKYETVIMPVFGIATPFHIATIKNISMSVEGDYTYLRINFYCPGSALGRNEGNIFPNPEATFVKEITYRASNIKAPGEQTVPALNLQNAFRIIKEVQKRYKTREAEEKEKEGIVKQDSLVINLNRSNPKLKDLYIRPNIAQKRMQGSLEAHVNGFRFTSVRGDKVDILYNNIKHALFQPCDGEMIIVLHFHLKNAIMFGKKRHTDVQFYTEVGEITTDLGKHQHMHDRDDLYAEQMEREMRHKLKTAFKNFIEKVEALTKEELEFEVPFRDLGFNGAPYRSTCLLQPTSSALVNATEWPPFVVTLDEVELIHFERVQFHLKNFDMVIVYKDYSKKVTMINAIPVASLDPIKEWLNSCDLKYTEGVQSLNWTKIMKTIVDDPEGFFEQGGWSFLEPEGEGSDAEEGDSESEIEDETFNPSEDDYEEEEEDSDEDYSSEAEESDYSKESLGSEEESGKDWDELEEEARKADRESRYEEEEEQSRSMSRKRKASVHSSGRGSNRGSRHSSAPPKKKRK
Method: as §1, §2

TAF15 = target: T7, TAF15 (human, UniProt Q92804-2 1-589, limits assumed); assay: as above
T7 construct: Identified by mass spectrometry in the co-IP; also called NP_003478.1 (+1)
T7 sequence (Q92804 other isoform, or with tags, fused parts or gaps limits assumed): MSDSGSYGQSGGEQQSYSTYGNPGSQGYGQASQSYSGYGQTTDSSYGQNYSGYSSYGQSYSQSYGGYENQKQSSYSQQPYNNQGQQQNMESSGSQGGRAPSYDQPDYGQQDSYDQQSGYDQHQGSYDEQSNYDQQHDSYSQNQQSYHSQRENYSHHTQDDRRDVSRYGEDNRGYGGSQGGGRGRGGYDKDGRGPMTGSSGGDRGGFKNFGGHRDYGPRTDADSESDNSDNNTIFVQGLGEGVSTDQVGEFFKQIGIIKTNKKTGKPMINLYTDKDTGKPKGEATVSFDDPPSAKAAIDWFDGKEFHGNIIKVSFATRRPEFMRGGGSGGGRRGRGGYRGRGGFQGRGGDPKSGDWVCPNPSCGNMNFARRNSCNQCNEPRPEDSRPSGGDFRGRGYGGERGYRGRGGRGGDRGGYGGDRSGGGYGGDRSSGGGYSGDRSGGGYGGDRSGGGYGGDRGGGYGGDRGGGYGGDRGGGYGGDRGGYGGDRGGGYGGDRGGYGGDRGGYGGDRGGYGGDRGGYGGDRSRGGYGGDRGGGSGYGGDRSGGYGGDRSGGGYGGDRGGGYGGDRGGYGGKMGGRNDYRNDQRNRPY
Method: as §1, §2

TFAM = target: T8, TFAM (human, UniProt Q00059 43-246); assay: as above
T8 construct: Identified by mass spectrometry in the co-IP; also called NP_003192.1
T8 sequence (looked up): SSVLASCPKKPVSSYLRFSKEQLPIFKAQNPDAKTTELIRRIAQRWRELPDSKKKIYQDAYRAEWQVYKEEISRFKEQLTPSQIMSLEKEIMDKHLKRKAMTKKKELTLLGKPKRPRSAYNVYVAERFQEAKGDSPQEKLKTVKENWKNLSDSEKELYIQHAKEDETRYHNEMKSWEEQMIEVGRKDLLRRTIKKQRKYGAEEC
Method: as §1, §2

TIMP3 = target: T9, TIMP3 (human, UniProt P35625 24-211); assay: as above
T9 construct: Identified by mass spectrometry in the co-IP; also called NP_000353.1
T9 sequence (looked up): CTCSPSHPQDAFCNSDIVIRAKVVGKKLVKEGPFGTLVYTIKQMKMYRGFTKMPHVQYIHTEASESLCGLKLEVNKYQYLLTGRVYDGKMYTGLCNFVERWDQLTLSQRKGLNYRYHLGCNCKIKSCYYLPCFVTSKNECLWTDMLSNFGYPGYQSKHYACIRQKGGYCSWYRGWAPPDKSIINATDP
Method: as §1, §2

EIF3I = target: T10, EIF3I (human, UniProt Q13347 1-325); assay: as above
T10 construct: Identified by mass spectrometry in the co-IP; also called NP_003748.1
T10 sequence (Q13347 whole entry): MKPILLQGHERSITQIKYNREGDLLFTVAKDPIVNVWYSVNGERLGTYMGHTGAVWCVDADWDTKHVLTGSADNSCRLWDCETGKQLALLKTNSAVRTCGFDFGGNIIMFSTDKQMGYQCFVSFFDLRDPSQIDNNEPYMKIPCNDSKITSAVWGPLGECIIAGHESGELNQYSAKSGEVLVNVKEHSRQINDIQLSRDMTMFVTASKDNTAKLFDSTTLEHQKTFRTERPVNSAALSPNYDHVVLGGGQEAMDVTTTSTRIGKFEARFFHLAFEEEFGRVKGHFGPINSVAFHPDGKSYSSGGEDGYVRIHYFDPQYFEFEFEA
Method: as §1, §2

RPL6 = RPL6 (human, UniProt Q02878 2-288); assay: co-IP with anti-FLAG, N-FLAG B3GNT2, mass spectrometry
Method: as §1, §2

P4HA2 = target: T11, P4HA2 (human, UniProt O15460 22-535, limits assumed); assay: as above
T11 construct: also called NP_001352606.1 (+3)
T11 sequence (O15460 22-535 limits assumed): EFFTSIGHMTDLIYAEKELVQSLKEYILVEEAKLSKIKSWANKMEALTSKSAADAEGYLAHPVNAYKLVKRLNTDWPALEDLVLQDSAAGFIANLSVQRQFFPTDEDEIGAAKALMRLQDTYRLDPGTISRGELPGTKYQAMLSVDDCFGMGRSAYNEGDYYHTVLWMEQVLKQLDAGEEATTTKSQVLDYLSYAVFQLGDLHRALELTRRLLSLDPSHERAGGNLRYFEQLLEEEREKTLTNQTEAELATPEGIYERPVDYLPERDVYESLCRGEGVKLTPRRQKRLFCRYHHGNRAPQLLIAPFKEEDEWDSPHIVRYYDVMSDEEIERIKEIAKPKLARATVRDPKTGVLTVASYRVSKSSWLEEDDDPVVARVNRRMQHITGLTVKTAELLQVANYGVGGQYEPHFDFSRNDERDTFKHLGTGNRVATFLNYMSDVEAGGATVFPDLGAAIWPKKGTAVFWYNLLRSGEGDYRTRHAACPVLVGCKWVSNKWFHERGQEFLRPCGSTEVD
Method: as §1, §2

B1: N-terminal FLAG tagged B3GNT2 (enzyme, human, UniProt Q9NY97 1-397, looked up)
chain: MSVGRRRIKLLGILMMANVFIYFIMEVSKSSSQEKNGKGEVIIPKEKFWKISTPPEAYWNREQEKLNRQYNPILSMLTNQTGEAGRLSNISHLNYCEPDLRVTSVVTGFNNLPDRFKDFLLYLRCRNYSLLIDQPDKCAKKPFLLLAIKSLTPHFARRQAIRESWGQESNAGNQTVVRVFLLGQTPPEDNHPDLSDMLKFESEKHQDILMWNYRDTFFNLSLKEVLFLRWVSTSCPDTEFVFKGDDDVFVNTHHILNYLNSLSKTKAKDLFIGDVIHNAGPHRDKKLKYYIPEVVYSGLYPPYAGGGGFLYSGHLALRLYHITDQVHLYPIDDVYTGMCLQKLGLVPEKHKGFRTFDIEEKNKNNICSYVDLMLVHSRKPQEMIDIWSQLQSAHLKC
notes: FLAG-tagged ORF overexpressed in cells; pulled down from lysate with mouse anti-FLAG; also called N-FLAG B3GNT2; N-term FLAG; not shown: N-terminal FLAG tag
S100A7
  co-IP mass spectrometry count: 3
EIF3A
  co-IP mass spectrometry count: 2

B2: N-terminal FLAG tagged B3GNT2 (enzyme, human, UniProt Q9NY97 1-397, looked up)
chain: MSVGRRRIKLLGILMMANVFIYFIMEVSKSSSQEKNGKGEVIIPKEKFWKISTPPEAYWNREQEKLNRQYNPILSMLTNQTGEAGRLSNISHLNYCEPDLRVTSVVTGFNNLPDRFKDFLLYLRCRNYSLLIDQPDKCAKKPFLLLAIKSLTPHFARRQAIRESWGQESNAGNQTVVRVFLLGQTPPEDNHPDLSDMLKFESEKHQDILMWNYRDTFFNLSLKEVLFLRWVSTSCPDTEFVFKGDDDVFVNTHHILNYLNSLSKTKAKDLFIGDVIHNAGPHRDKKLKYYIPEVVYSGLYPPYAGGGGFLYSGHLALRLYHITDQVHLYPIDDVYTGMCLQKLGLVPEKHKGFRTFDIEEKNKNNICSYVDLMLVHSRKPQEMIDIWSQLQSAHLKC
notes: FLAG-tagged ORF overexpressed in A375 cells; bait of the co-IP with mouse anti-FLAG; also called N-FLAG B3GNT2; N-term FLAG; not shown: N-terminal FLAG tag
SRP14
  co-IP mass spectrometry count (N-term FLAG): 0
TCP1
  co-IP mass spectrometry count (N-term FLAG): 0
KHDRBS1
  co-IP mass spectrometry count (N-term FLAG): 9
SUPT16H
  co-IP mass spectrometry count (N-term FLAG): 0
TAF15
  co-IP mass spectrometry count (N-term FLAG): 5
TFAM
  co-IP mass spectrometry count (N-term FLAG): 0
TIMP3
  co-IP mass spectrometry count (N-term FLAG): 0
EIF3I
  co-IP mass spectrometry count (N-term FLAG): 0

B3: N-terminal FLAG tagged B3GNT2 (enzyme, human, UniProt Q9NY97 1-397, looked up)
chain: MSVGRRRIKLLGILMMANVFIYFIMEVSKSSSQEKNGKGEVIIPKEKFWKISTPPEAYWNREQEKLNRQYNPILSMLTNQTGEAGRLSNISHLNYCEPDLRVTSVVTGFNNLPDRFKDFLLYLRCRNYSLLIDQPDKCAKKPFLLLAIKSLTPHFARRQAIRESWGQESNAGNQTVVRVFLLGQTPPEDNHPDLSDMLKFESEKHQDILMWNYRDTFFNLSLKEVLFLRWVSTSCPDTEFVFKGDDDVFVNTHHILNYLNSLSKTKAKDLFIGDVIHNAGPHRDKKLKYYIPEVVYSGLYPPYAGGGGFLYSGHLALRLYHITDQVHLYPIDDVYTGMCLQKLGLVPEKHKGFRTFDIEEKNKNNICSYVDLMLVHSRKPQEMIDIWSQLQSAHLKC
notes: FLAG-tagged ORF overexpressed in A375 cells; pulled down from the lysate with mouse anti-FLAG; also called N-FLAG B3GNT2; N-term FLAG; not shown: N-terminal FLAG tag
RPL6
  co-IP/MS count, N-term FLAG: 10
P4HA2
  co-IP/MS count, N-term FLAG: 0

Source: patent publication US20240261333A1 (published 2024)
